According to the Immune Epitope Database (IEDB):
pKd: −log10 of the molar value.

Legend:
Experiment in all cases: IEDB peptide-MHC binding, purified MHC/competitive/radioactivity; filed as Kd, often an IC50 or EC50 that approximates it; ≥ and ≤ were set here for values at or beyond the usual limits of such assays
[1] = target: HLA-A*02:02; details: source organism: Vaccinia virus WR
[2] = target: HLA-A*02:03
[3] = target: HLA-A*02:06
[4] = target: HLA-A*03:01
[5] = target: HLA-A*11:01
[6] = target: HLA-A*31:01
[7] = target: HLA-A*33:01
[8] = target: HLA-A*68:01
[9] = source organism: Vaccinia virus WR
[10] = source organism: Dengue virus 1 Brazil/97-11/1997
[11] = source organism: SARS coronavirus Tor2
[12] = source organism: Mammarenavirus juninense
[13] = source organism: Mammarenavirus lassaense

Sequence	pKd [4, 9]	pKd [5, 9]	pKd [6, 9]	pKd [7, 9]	pKd [8, 9]	other results
RVLYDEFVTI	–	–	–	–	–	pKd [1]: 6.82; pKd [2, 9]: 6.75; pKd [3, 9]: 8.18
SADNHPKMIK	7.78	8.69	7.47	6.84	7.82	–
SIFVSTMPV	–	–	–	–	–	pKd [1]: 7.43; pKd [2, 9]: 8.18; pKd [3, 9]: 7.09
SILARRPTPK	8.97	8.84	6.43	4.91	6.83	–
SLCPTKKLV	–	–	–	–	–	pKd [1]: 5.50; pKd [2, 9]: 5.58; pKd [3, 9]: 4.92
SLFPLCLSTT	–	–	–	–	–	pKd [2, 10]: 9.52
SLIKFISDNK	7.83	7.63	5.58	≤ 4.15	7.16	–
SLVSKHWELT	–	–	–	–	–	pKd [1]: 6.39; pKd [2, 9]: 7.46; pKd [3, 9]: 5.57
SMVSAGSGEV	–	–	–	–	–	pKd [2, 10]: 6.84
SQIFNIISYI	–	–	–	–	–	pKd [1]: 7.21; pKd [2, 9]: 6.74; pKd [3, 9]: 7.63
SQVNPITLTA	–	–	–	–	–	pKd ([3]; source organism: Dengue virus 2 Jamaica/1409/1983): 6.89
SSIDVDKRTK	6.31	9.08	6.12	5.05	7.72	–
SSYSLFDMSK	–	–	–	–	–	pKd [4, 11]: 7.74; pKd [5, 11]: 8.49; pKd [6, 11]: 6.60; pKd [7, 11]: 5.00; pKd [8, 11]: 7.37
SVKNLILNFL	–	–	–	–	–	pKd [1]: 5.98; pKd [2, 9]: 6.79; pKd [3, 9]: 6.26
SWPLQCPLDH	–	–	–	–	–	pKd [4, 12]: ≤ 4.15; pKd [5, 12]: ≤ 4.16; pKd [6, 12]: ≤ 4.64; pKd [7, 12]: ≤ 4.41; pKd [8, 12]: ≤ 4.15
TFKIDAVRY	≤ 4.11	4.72	≤ 4.46	≤ 4.11	5.72	–
TIGTIAGGV	–	–	–	–	–	pKd [1]: 6.53; pKd [2, 9]: 7.76; pKd [3, 9]: 5.94
TIKYSNDNRY	≤ 4.69	5.05	≤ 4.52	≤ 4.15	6.02	–
TITTFIPISA	–	–	–	–	–	pKd [1]: 5.39; pKd [2, 9]: 6.75; pKd [3, 9]: 5.32

Sequence	pKd [4, 9]	pKd [5, 9]	pKd [6, 9]	pKd [7, 9]	pKd [8, 9]	other results
TLFYCDERDA	–	–	–	–	–	pKd [1]: 6.57; pKd [2, 9]: 5.67; pKd [3, 9]: 4.71
TLILSNKLLY	5.89	6.00	4.74	4.73	5.36	–
TLMSIISTFH	–	–	–	–	–	pKd [4, 13]: 5.20; pKd [5, 13]: ≤ 4.46; pKd [6, 13]: 5.06; pKd [7, 13]: 4.80; pKd [8, 13]: 5.53
TMADLVYALR	–	–	–	–	–	pKd [4, 11]: 5.65; pKd [5, 11]: 6.05; pKd [6, 11]: 7.09; pKd [7, 11]: 6.87; pKd [8, 11]: 8.03
TSKTTILSK	5.34	6.39	5.69	≤ 4.42	5.95	–
TTEMLSRALK	–	–	–	–	–	pKd [4, 11]: 7.00; pKd [5, 11]: 7.17; pKd [6, 11]: 6.92; pKd [7, 11]: 5.41; pKd [8, 11]: 7.89
TTTFITVLT	–	–	–	–	–	pKd [1]: 5.61; pKd [2, 9]: 5.07; pKd [3, 9]: 5.96
TVQEFIFSAL	–	–	–	–	–	pKd [1]: 7.09; pKd [2, 9]: 7.05; pKd [3, 9]: 7.36
TVSALVYDNK	–	–	–	–	–	pKd [4, 11]: 6.31; pKd [5, 11]: 7.69; pKd [6, 11]: 5.31; pKd [7, 11]: 5.01; pKd [8, 11]: 8.23
VMNIERQDYR	4.94	5.38	7.33	7.19	6.82	–
VQMLSDTLK	–	–	–	–	–	pKd [4, 11]: 7.13; pKd [5, 11]: 7.73; pKd [6, 11]: 6.38; pKd [7, 11]: ≤ 4.11; pKd [8, 11]: 5.61
VSAQNISFK	7.84	8.02	5.80	≤ 4.47	7.15	–
VSDFRDYQSY	≤ 4.49	5.33	≤ 4.15	≤ 4.15	≤ 4.29	–
VTDLENRLKK	6.54	7.84	≤ 4.42	≤ 4.15	≤ 4.50	–
YFSFKKCLVY	7.48	6.97	5.56	5.04	6.24	–
YIRRNMINK	7.97	6.25	5.63	≤ 4.67	6.77	–
YLKNYKNFDY	5.39	5.60	5.81	≤ 4.15	5.14	–
YLSSRAKLAL	–	–	–	–	–	pKd ([2]; source organism: Dengue virus 4 Philippines/H241/1956): 7.55
YTCEDNTGIK	≤ 4.53	5.97	≤ 4.15	≤ 4.15	6.59	–
